This is an account of results in the nanobody polyreactivity screen of Harvey et al. (2022).

The data set in a line: yeast display, Sf9 membrane polyspecificity reagent, FACS + sequencing; frameworks hold sequencing errors. The method, boiled down:
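In a synthetic yeast display library (Saccharomyces cerevisiae BJ5465), nanobody expression was induced with galactose for 36–48 hours. FACS gates were set low and high (top ~1%) using anti-HA fluorescence for expression and streptavidin fluorescence for binding of the Sf9 membrane reagent. Each polyreactivity label is drawn from the gate of origin.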
As to “QVQLVESGGGLVQAGGSLRLSCAASGRTFKYNAMGWYRQAPGKERELVAAISSDDSTNYADSVKGRFTISRDNAKNTVYLQMNSLKPEDTAVYYCAARYGYSKWPDRVQAYKHDYWGQGTQVTVSS”, the “polyreactivity (PSR sort gate)” value is recorded as “low polyreactivity”.
With “QVQLVESGGGLVQAGGSLRLSCAASGRTFKYNAMGWYRQAPGKERELVAAISSTGSTNYADSVKGRFTISRDNAKNTVYLQMNSLKPEDTAVYYCAASYYFVQWGWYYYWGQGTQVTVSS” the entry was “low polyreactivity”; with “QVQLVESGGGLVQAGGSLRLSCAASGRTFKYNAMGWYRQAPGKERELVATISGSGGRTYYADSVKGRFTISRDNAKNTVYLQMNSLKPEDTAVYYCNAPRVKWLDWGQGTQVTVSS”, “high polyreactivity”.
The entry for “QVQLVESGGGLVQAGGSLRLSCAASGRTFKYNAMGWYRQAPGNERELVAAISRSGGSTYYADSVKGRFTISRDNAKNTVYLQMNSLKPEDTAVYYCNAEYLWIRHIAEDYWGQGTQVTVSS” is “low polyreactivity”; for “QVQLVESGGGLVQAGGSLRLSCAASGRTFKYYAMGWYRQAPGKERELVAAISSRGGSTYYADSVKGRFTISRDNAKNTVYLQMNSLKPEDTAVYYCAKGTYLSTSTVANDYWGQGTQVTVSS” it is “high polyreactivity”; for “QVQLVESGGGLVQAGGSLRLSCAASGRTFKYYAMGWYRQAPGKERELVATISYNGASTYYADSVKGRFTISRDNAKNTVYLQMNSLKPEDTAVYYCAAGYLWRGRLGYWGQGTQVTVSS” it is “high polyreactivity”.
Regarding “QVQLVESGGGLVQAGGSLRLSCAASGRTFKYYAMGWYSQAPGKERELVAAITRSGVSTSYADSVKGRFTISRDNAKNTVYLQMNSLKPEDTAVYYCNVYGYTYYTRGVGYWGQGTQVTVSS”, the “polyreactivity (PSR sort gate)” value is given as “high polyreactivity”.
In the case of “QVQLVESGGGLVQAGGSLRLSCAASGRTFLDNAMGWYRQAPGNEWELVATICSSGGTRYYADSVKGSFTISRDNAKNTVYLPMHSQKPEDTAVYYCNALWWGRYYRPYVTPVLGRMEYWGQGTQVTVSS”, the “polyreactivity (PSR sort gate)” value is “low polyreactivity”.
For the sequence “QVQLVESGGGLVQAGGSLRLSCAASGRTFLFNGMGWYRQAPGKERELVASITRGGSTYADSVKGRFTISRDNAKNTVYLQMNSLKPEDTAVYYCAALTSRTYLWTTRPYDYWGQGTQVTVSS”, the “polyreactivity (PSR sort gate)” value was “high polyreactivity”.
As to “QVQLVESGGGLVQAGGSLRLSCAASGRTFLGNAMGWYRQAPGKERELVAAIRYSGGRTYYADSVKGRFTISRDNANNTVYLQMNSLKPEDTAVYYCAAELDGSNYPLDYWGQGTKVTVSS”, the “polyreactivity (PSR sort gate)” value was “low polyreactivity”.
The entry for “QVQLVESGGGLVQAGGSLRLSCAASGRTFLGYAMGWYRQAPGKERELVAAISWDGTSTYYADSVKGRFTISRDNAKNTVYLQMNSLKPEDTAVYDCAAQLTDYQSKTLSYDYWGQGTQVTVSS” is “low polyreactivity”.
Take “QVQLVESGGGLVQAGGSLRLSCAASGRTFLGYAMGWYRQAPGKERELVAGITSGGRTYYADSVKGRFTNSRDNAKNTVYLQMNSLKPEDTAVYYCAADTHGYDPMDYWGQGTQVTVSS”: the “polyreactivity (PSR sort gate)” value was “high polyreactivity”.
Take “QVQLVESGGGLVQAGGSLRLSCAASGRTFLHYAMGWYRQAPGKEREFVAAIRTSGTSTYYADSVKGRFTISRDNAKNTVYLQMNSLKPEDTAVYYCAVARGSGWYWRSDYWGQGTQVTVSS”: the “polyreactivity (PSR sort gate)” value is given as “high polyreactivity”.
“QVQLVESGGGLVQAGGSLRLSCAASGRTFLINAMGWYRQAPGKERELVAGINRNGGTTYYADSVKGRFTISRDNAKNTVYLQMNSLKPEDTAVYYCAKRYPSWFNYWGQGTQVTVSS”: the “polyreactivity (PSR sort gate)” value was “high polyreactivity”.
The entry for “QVQLVESGGGLVQAGGSLRLSCAASGRTFLIYAMGWYRQAPGKERELVAAITNAVDSTYYADSVKGRFTISRDNAKNTVYLQMNSLKPEDTAVYYCNADTVVEWYSPSREYDYWGQGTQVTVSS” is “low polyreactivity”; for “QVQLVESGGGLVQAGGSLRLSCAASGRTFLPNDMGWYRQAPGKERELVAAITDSGGDTYYADSVKGRFTISRDNAKNTVYLQMNSLKPEDTAVYYCASDYYYYGSYYPVEYWGQGTQVTVSS” it is “high polyreactivity”.
With “QVQLVESGGGLVQAGGSLRLSCAASGRTFLPNPMGWYRPAPGKERELVAVITSVGSTNYADSVKGRCTISRDNAKNTVYLQMNSLKPEDTAVYFCAALKPRTRRAGFNYWGQGTQVTVSS” the entry was “low polyreactivity”; with “QVQLVESGGGLVQAGGSLRLSCAASGRTFLPYAMGWYRQAPGKERELVAAIDSSGGSTYYADSVKGRFTISRDNAKNTVYLQMNSLKPEDTAVYYCAADLYSSSYLYDSWGQGTQVTVSS”, “low polyreactivity”; with “QVQLVESGGGLVQAGGSLRLSCAASGRTFLPYAMGWYRQAPGKERELVAAIDSSGGSTYYADSVKGRFTISRDNAKNTVYLQMNSLKPEDTAVYYCAADLYSSYYLYDSWGQGTQVTVSS”, “low polyreactivity”.
On to “QVQLVESGGGLVQAGGSLRLSCAASGRTFLRNAMGWYRQAPGKERELVAAITSSGGRTYYADSVKGRFTISRDNAKNTVYLQMNSLKPEDTAVYYCATDTGWPGRDYWGQGTQVTVSS”, for which the “polyreactivity (PSR sort gate)” value is “high polyreactivity”.
With “QVQLVESGGGLVQAGGSLRLSCAASGRTFLRNAMGWYRQAPGKERELVAAITSSGGRTYYADSVKGRFTISRDNAKNTVYLQMNSLKPEDTAVYYCAVDVTVREWFEYYYWGQGTQVTVSS” the entry was “high polyreactivity”; with “QVQLVESGGGLVQAGGSLRLSCAASGRTFLRNDMVWYRQAPGKERELVAAISYSGGRTYYAVSVKGRFTISRDNAKNTVYLQMNSLKPEDTAVYYCAADRFFKAIRPYDYWGQGTQVTVSS”, “high polyreactivity”.
Consider “QVQLVESGGGLVQAGGSLRLSCAASGRTFLRYARGWYRQAPGKERELVAAISWSGGRTYYADSVKGRFTISRDNAKNTVYLQMNSLKPEDTAVYYCNKVVLYGAHYYYWGQGTQVTVSS”, for which the “polyreactivity (PSR sort gate)” value was “high polyreactivity”.
In the case of “QVQLVESGGGLVQAGGSLRLSCAASGRTFLSYAMGWYRQAPGKDRELVAAIRRGSSTYYADSVKGRFTISRDNAKNTVYLQMNSLKPEDTAVYYCAARGRYRIGPGRYGKRYDYWGQGTQVTVSS”, the “polyreactivity (PSR sort gate)” value is reported as “high polyreactivity”.
On to “QVQLVESGGGLVQAGGSLRLSCAASGRTFLVYAMGWYRQAPGKERELVAAISYSDGNTYYADSVKGRFTISRDHAKNTVYLQMNSLKPEDTAVYYCNAVTYGYPYDYWGQGTQVTVSS”, for which the “polyreactivity (PSR sort gate)” value is reported as “low polyreactivity”.
The entry for “QVQLVESGGGLVQAGGSLRLSCAASGRTFLVYAMGWYRQAPGKERELVAAITSGGDTYADSVKGRFTISRDNAKNTVYLQMNSLKPEDTAVYYCAVQPDYFIVLWEYDYWGQGTQVTVSS” is “high polyreactivity”; for “QVQLVESGGGLVQAGGSLRLSCAASGRTFLVYAMGWYRQAPGKERELVADITGRGGITYYADSVKGRFTISRDNAKNTVYLQMNSLKPEDTAVYYCAAERYNSKTIYRYDYWGQGTQVTVSS” it is “high polyreactivity”.
For “QVQLVESGGGLVQAGGSLRLSCAASGRTFLVYAMGWYRQAPGKERELVATIRASTGSTYADSVKGRFTISRDNAKNTVYLQMNSLKPEDTAVYYCNAVHYFLYGYYSWGQGTQVTVSS”, the “polyreactivity (PSR sort gate)” value is “high polyreactivity”.
For the sequence “QVQLVESGGGLVQAGGSLRLSCAASGRTFLVYARGWYRQAPGKDRELVAAISISSGSTYYADSVKGRFTISRDNAKNTVYLQMNSLKPEDTAVYYCAAVYTYVKRASENDYWGQGTQVTVSS”, the “polyreactivity (PSR sort gate)” value was “low polyreactivity”.
In the case of “QVQLVESGGGLVQAGGSLRLSCAASGRTFLVYTMGWYREAPGKERELVAAISWSDGSTYYADSVKGRFTISRDNAKNTVYLQMNSLKPEDTADYYCAARRTGYLYRYGYWGQGTQVTVSS”, the “polyreactivity (PSR sort gate)” value is “low polyreactivity”.
As to “QVQLVESGGGLVQAGGSLRLSCAASGRTFLWNDMGWYRQAPGKERELVAAITGSDGTYADSVKGRFTISRDNAKNTVYLQMNSLKPEDTAVYYCAAVYSYQNEGYDYWGQGTQVTVSS”, the “polyreactivity (PSR sort gate)” value is “low polyreactivity”.
The entry for “QVQLVESGGGLVQAGGSLRLSCAASGRTFLYNAMGWYRQAPGKERELVATITWSDDGTYYADSVKGRFTISRDNAKNTVYLQMNSLKPEDTAVYYCAAVYPRTRVKMDYWGQGTQVTVSS” is “low polyreactivity”; for “QVQLVESGGGLVQAGGSLRLSCAASGRTFLYYAMGWFRQAPGKERELVAAISASGGSTYYADSVKGRFTISRDNAKNTVYLQMNSLKPEETAVYSCARYTGWGSRYDYWGQGTQVTVSS” it is “high polyreactivity”.
With “QVQLVESGGGLVQAGGSLRLSCAASGRTFLYYAMGWYRQAPGKERELVAAISTGSSTYYADSVKGRFTISRDNAKNTVYLQMNSLKPEDTAVYYCAAGSIVGYPGFSTDDYWGQGTQVTVSS”, the “polyreactivity (PSR sort gate)” value is recorded as “low polyreactivity”.
The entry for “QVQLVESGGGLVQAGGSLRLSCAASGRTFLYYTMGWYRQAPGKERELVAVISIEGGGTYADSVKGRFTISRDNAKNTVYLQMNSLKPEDTAVYYCAVDALSITYGYWGQGTQVNVSS” is “low polyreactivity”; for “QVQLVESGGGLVQAGGSLRLSCAASGRTFNFYSMGCYRQAPRKERELVAAISHGDSTYYADSVKGRFTISRDNAKNTVYLQMNSLNPEDTAVYYCAASQKYYLRKYEYWGQGTQVTVSS” it is “low polyreactivity”.
As for “QVQLVESGGGLVQAGGSLRLSCAASGRTFNGYAMGWYRQAPGKERELVARITYRGGGTYYADSVKGRFTISRDNAKNTVYLQMNSLKPEDTAVYYCNARGVQYRYYYWGQGTQVTVSS”, the “polyreactivity (PSR sort gate)” value is recorded as “high polyreactivity”.
Regarding “QVQLVESGGGLVQAGGSLRLSCAASGRTFNGYAMGWYRQAPGKERELVASISWSGGRTYYADSVKGRFTISRDNAKNTVYFQMNSLKPEDTAVYYCAATFVNVVGYDYWGQGTQVTVST”, the “polyreactivity (PSR sort gate)” value is “high polyreactivity”.
The entry for “QVQLVESGGGLVQAGGSLRLSCAASGRTFNKNSMGWYRQAPGKERELVAAITTGGGTYYADSVKGRFTISRDNAKNTVYLQMNSLKPEDTAVYYCAARRRRWSGYWGQGTQVTVSS” is “high polyreactivity”; for “QVQLVESGGGLVQAGGSLRLSCAASGRTFNKYAMGWYTQAPGKERELVAAISTRGGSTYYADSVKGRFTISRDNAKNTVDLQMNSLKPEDTAVYYCAARLTTVGQGFDYWGQGTQVTVSS” it is “high polyreactivity”; for “QVQLVESGGGLVQAGGSLRLSCAASGRTFNLYAMGWYRQAPGKEREFVAAISYSGDSTYYADSVKGRFTISRDNAKNTVYLQMNSLKPEDTAVYYCNADRLQVTRTYDYWGQGTQVTVSS” it is “low polyreactivity”.
